± gives the uncertainty stated by the source.
Assay: self-splicing fitness, log relative to wild type (ln ratio); higher = more splicing; Tetrahymena group I intron in knt gene, E. coli kanamycin selection, DiMSum; sequences stand for … in CUCUCU…GGAGGGAAAAGUUAUCAGGCAUGCACCUGGUAGCUAGUCUUUAAACCAAUAGAUUGCAUCGGUUUAAAAGGCAAGACCGUCAAAUUGCGGGAAAGGGGUCAACAGCCGUUCAGUACCAAGUCUCAGGGGAAACUUUGAGAUGGCCUUGCAAAGGGUAUGGUAAUAAGCUGACGGACAUGGUCCUAACCACGCAGCCAAGUCCUAAGUCAACAGAUCUUCUGUUGAUAUGGAUGCAGUUCACAGACUAAAUGUCGGUCGGGGAAGAUGUAUUCUUCUCAUAAGAUAUAGUCGGACCUCUCCUUAAUGGGAGCUAGCGGAUGAAGUGAUGCAACACUGGAGCCGCUGGGAACUAAUUUGUAUGCGAAAGUAUAUUGAUUAGUUUUGGAGUACUCGUGGUCG
Method in brief: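 Library with all eight P1ex-region intron nucleotides randomised, intron inside the knt kanamycin-resistance gene on pET-22b(+), in E. coli BL21(DE3). Cells grew overnight at 37°C or 30°C on LB agar with or without 25 μg/mL kanamycin (plus 100 μg/mL carbenicillin, 50 μM IPTG, 0.2% rhamnose), in six replicate transformations. Pooled colonies were amplicon-sequenced on Illumina HiSeq 2500. DiMSum fitness is the error-weighted combination of wild-type-normalised replicate fold changes, kanamycin versus none.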

| Sequence | self-splicing fitness (ln) (30 °C) | self-splicing fitness (ln) (37 °C) |
| --- | --- | --- |
| CUAAAGCAAUAUUACGGUCG | 0.0851 ± 0.065 | 0.151 ± 0.086 |
| CUAAAGCAAUAUUACGGUUG | -0.57 ± 0.056 | -0.138 ± 0.081 |
| CUAAAGCAAUAUUACGUAUA | -3.23 ± 0.14 | -3.09 ± 0.28 |
| CUAAAGCAAUAUUACGUCAG | -0.715 ± 0.064 | 0.333 ± 0.1 |
| CUAAAGCAAUAUUACGUGGC | -2.9 ± 0.12 | -2.05 ± 0.15 |
| CUACAGCAAUAUUACGAAGA | -3.21 ± 0.45 | -2.56 ± 0.41 |
| CUACAGCAAUAUUACGAAUU | -3.04 ± 0.14 | -2.94 ± 0.24 |
| CUACAGCAAUAUUACGACUA | -2.2 ± 0.23 | -2.38 ± 0.35 |
| CUACAGCAAUAUUACGACUU | -3.83 ± 0.32 | -2.81 ± 0.35 |
| CUACAGCAAUAUUACGAGAU | -4.21 ± 0.37 | -2.96 ± 0.28 |
| CUACAGCAAUAUUACGAGCC | -2.24 ± 0.24 | -1.88 ± 0.31 |
| CUACAGCAAUAUUACGAGGA | -3.4 ± 0.2 | -3.21 ± 0.27 |
| CUACAGCAAUAUUACGAUGA | -3.02 ± 0.19 | -2.13 ± 0.14 |
| CUACAGCAAUAUUACGAUGU | -3.46 ± 0.17 | -2.44 ± 0.19 |
| CUACAGCAAUAUUACGCACA | -3.12 ± 0.2 | -3.29 ± 0.27 |
| CUACAGCAAUAUUACGCCAA | -3.32 ± 0.17 | -3.04 ± 0.25 |
| CUACAGCAAUAUUACGCCCA | -2.99 ± 0.27 | -1.85 ± 0.23 |
| CUACAGCAAUAUUACGCCUA | -2.46 ± 0.18 | -3.31 ± 0.28 |
| CUACAGCAAUAUUACGCGCC | -3.98 ± 0.35 | -2.3 ± 0.41 |
| CUACAGCAAUAUUACGCGCU | -3.59 ± 0.28 | -1.5 ± 0.23 |
| CUACAGCAAUAUUACGCGUA | -3.72 ± 0.31 | -2.84 ± 0.3 |
| CUACAGCAAUAUUACGCUUC |  | -2.88 ± 0.44 |
| CUACAGCAAUAUUACGGACA | -1.52 ± 0.39 | -2.47 ± 0.38 |
| CUACAGCAAUAUUACGGCAG | -1.07 ± 0.063 | -0.452 ± 0.088 |
| CUACAGCAAUAUUACGGCGA | -2.97 ± 0.39 | -2.91 ± 0.27 |

| Sequence | self-splicing fitness (ln) (30 °C) | self-splicing fitness (ln) (37 °C) |
| --- | --- | --- |
| CUACAGCAAUAUUACGGUUA | -0.432 ± 0.092 | 0.11 ± 0.1 |
| CUACAGCAAUAUUACGUAAA | -3.13 ± 0.16 | -1.92 ± 0.17 |
| CUACAGCAAUAUUACGUCUA | -3.21 ± 0.24 | -3.04 ± 0.33 |
| CUACAGCAAUAUUACGUCUC | -3.38 ± 0.18 | -2.55 ± 0.3 |
| CUACAGCAAUAUUACGUGUA | -3.12 ± 0.14 | -2.93 ± 0.16 |
| CUACAGCAAUAUUACGUGUU | -3.08 ± 0.16 | -2.94 ± 0.15 |
| CUACAGCAAUAUUACGUUCU | -2.56 ± 0.12 | -2.42 ± 0.2 |
| CUAGAGCAAUAUUACGAAAC | -3.57 ± 0.31 | -2.41 ± 0.39 |
| CUAGAGCAAUAUUACGCAGA | -2.47 ± 0.37 | -3.6 ± 0.33 |
| CUAGAGCAAUAUUACGCAGG | -2.12 ± 0.14 | -1.75 ± 0.19 |
| CUAGAGCAAUAUUACGCGGC | -0.707 ± 0.19 | 0.756 ± 0.2 |
| CUAGAGCAAUAUUACGGCGG | -0.275 ± 0.075 | 0.501 ± 0.1 |
| CUAGAGCAAUAUUACGGGAG | -0.494 ± 0.052 | -0.0261 ± 0.075 |
| CUAGAGCAAUAUUACGGGAU | -2.94 ± 0.17 | -1.96 ± 0.23 |
| CUAGAGCAAUAUUACGUCAA | -3.76 ± 0.24 | -2.23 ± 0.21 |
| CUAGAGCAAUAUUACGUGAA | -3.81 ± 0.23 | -2.07 ± 0.26 |
| CUAGAGCAAUAUUACGUGGU | -4.21 ± 0.24 | -3.52 ± 0.33 |
| CUAUAGCAAUAUUACGAUCG | -0.256 ± 0.075 | 0.439 ± 0.1 |
| CUAUAGCAAUAUUACGCAAC |  | -2.26 ± 0.35 |
| CUAUAGCAAUAUUACGCAGG | -2.75 ± 0.34 |  |
| CUAUAGCAAUAUUACGCCAU | -2.66 ± 0.39 | -2.45 ± 0.37 |
| CUAUAGCAAUAUUACGCCUG | -0.141 ± 0.15 | -0.439 ± 0.14 |
| CUAUAGCAAUAUUACGCGCU | -4.04 ± 0.36 | -2.61 ± 0.41 |
| CUAUAGCAAUAUUACGCUAC | -3.66 ± 0.17 | -2.98 ± 0.2 |
| CUAUAGCAAUAUUACGCUUA | -2.47 ± 0.24 | -2.34 ± 0.3 |

| Sequence | self-splicing fitness (ln) (30 °C) | self-splicing fitness (ln) (37 °C) |
| --- | --- | --- |
| CUAUAGCAAUAUUACGGAAU | -3.5 ± 0.4 |  |
| CUAUAGCAAUAUUACGGACA | -2.77 ± 0.22 | -1.1 ± 0.29 |
| CUAUAGCAAUAUUACGGACC |  | -1.23 ± 0.34 |
| CUAUAGCAAUAUUACGGCGC | -2.5 ± 0.28 |  |
| CUAUAGCAAUAUUACGGUAG | -2.21 ± 0.14 | -2.58 ± 0.2 |
| CUAUAGCAAUAUUACGUAAG | -0.717 ± 0.058 | 0.183 ± 0.084 |
| CUAUAGCAAUAUUACGUAGA | -3.52 ± 0.33 | -1.87 ± 0.34 |
| CUAUAGCAAUAUUACGUCAG | -1.75 ± 0.11 | -0.591 ± 0.12 |
| CUAUAGCAAUAUUACGUCCA | -4.03 ± 0.36 | -3.13 ± 0.4 |
| CUAUAGCAAUAUUACGUCUA | -3.05 ± 0.36 | -3.16 ± 0.35 |
| CUAUAGCAAUAUUACGUGAA | -4.01 ± 0.19 | -2.51 ± 0.21 |
| CUAUAGCAAUAUUACGUGCG | -1.19 ± 0.1 | -0.322 ± 0.13 |
| CUAUAGCAAUAUUACGUUCG | -0.385 ± 0.094 | -0.145 ± 0.14 |
| CUAUAGCAAUAUUACGUUUU | -3.44 ± 0.16 | -2.61 ± 0.21 |
| CUCAAGCAAUAUUACGACAC | -3.35 ± 0.29 | -2.52 ± 0.3 |
| CUCAAGCAAUAUUACGAGCC |  | -2.67 ± 0.3 |
| CUCAAGCAAUAUUACGAUUU | -3.68 ± 0.21 | -2.4 ± 0.25 |
| CUCAAGCAAUAUUACGCCCA | -3.18 ± 0.4 | -2.01 ± 0.47 |
| CUCAAGCAAUAUUACGCCGU | -3.42 ± 0.17 | -1.88 ± 0.15 |
| CUCAAGCAAUAUUACGCGAC | -1.93 ± 0.16 | -1.45 ± 0.19 |
| CUCAAGCAAUAUUACGCGGC | -3.21 ± 0.25 | -3.15 ± 0.34 |
| CUCAAGCAAUAUUACGCUCA | -3.34 ± 0.26 | -2.49 ± 0.24 |
| CUCAAGCAAUAUUACGCUGU | -3.74 ± 0.21 | -1.59 ± 0.23 |
| CUCAAGCAAUAUUACGGAUC | -3.98 ± 0.43 | -2.19 ± 0.27 |
| CUCAAGCAAUAUUACGGCAA | -3.15 ± 0.32 | -1.32 ± 0.24 |

| Sequence | self-splicing fitness (ln) (30 °C) | self-splicing fitness (ln) (37 °C) |
| --- | --- | --- |
| CUCAAGCAAUAUUACGGCCG | -1.2 ± 0.13 | -1.69 ± 0.24 |
| CUCAAGCAAUAUUACGGGGC | -4.64 ± 0.41 | -3.31 ± 0.33 |
| CUCAAGCAAUAUUACGGGUC | -4.31 ± 0.17 | -2.48 ± 0.12 |
| CUCAAGCAAUAUUACGGUCU | -3.13 ± 0.16 | -3.56 ± 0.39 |
| CUCAAGCAAUAUUACGUAAA | -3.37 ± 0.18 | -2.48 ± 0.25 |
| CUCAAGCAAUAUUACGUAGU | -3.43 ± 0.17 | -1.91 ± 0.14 |
| CUCAAGCAAUAUUACGUGAU | -1.25 ± 0.053 | -0.372 ± 0.067 |
| CUCCAGCAAUAUUACGAAAA | -2.78 ± 0.28 | -1.89 ± 0.3 |
| CUCCAGCAAUAUUACGAAGC | -3.5 ± 0.23 | -2.6 ± 0.32 |
| CUCCAGCAAUAUUACGACUC | -3.66 ± 0.24 | -2.24 ± 0.38 |
| CUCCAGCAAUAUUACGAGGG | -3.65 ± 0.17 | -2.89 ± 0.25 |
| CUCCAGCAAUAUUACGAUCG | -1.49 ± 0.063 | -0.922 ± 0.075 |
| CUCCAGCAAUAUUACGAUGG | -4.58 ± 0.32 | -3.19 ± 0.26 |
| CUCCAGCAAUAUUACGCAAG | -3.52 ± 0.26 | -1.41 ± 0.18 |
| CUCCAGCAAUAUUACGCACU | -2.56 ± 0.14 | -3.09 ± 0.32 |
| CUCCAGCAAUAUUACGCAGC | -2.51 ± 0.15 | -2.25 ± 0.49 |
| CUCCAGCAAUAUUACGCAUC | -4.12 ± 0.42 | -2.4 ± 0.37 |
| CUCCAGCAAUAUUACGCGCC | -2.7 ± 0.29 | -2.05 ± 0.38 |
| CUCCAGCAAUAUUACGCGUA |  | -2.56 ± 0.25 |
| CUCCAGCAAUAUUACGCGUC | -3.46 ± 0.28 |  |
| CUCCAGCAAUAUUACGCUUU | -2.78 ± 0.19 | -2.8 ± 0.26 |
| CUCCAGCAAUAUUACGGAAU | -4.1 ± 0.21 | -2.27 ± 0.16 |
| CUCCAGCAAUAUUACGGACA | -0.816 ± 0.14 | -0.868 ± 0.15 |

Source: the supplement of paper PMC7877785
